Experimental data taken from the DeepSol protein solubility set.

Experiment: soluble on expression in E. coli; label from the status in PepcDB or PDB records

Row | Sequence | soluble on expression in E. coli
1 | MGSDKIHHHHHHVSDLEWVLAIPHEQAFKRMEEPWGGAKTSYLTGIKETLEANYGPIHFTRLYFGEEFCERALSTGKALEEAVAAAEERGWGFTYVTPYLTETGLTKVRLLLDILAQTKPEAEVVINDWGVLDWVTEHHPTFTPVLGRLMNKIIRDPRMPDSLRNSPDQTVMHKFRTCNLAGGEMKDLLDQYQVKRIELDYPPQGLDPNLPAWGYDISLSIPYGVIMTGRICLMQSWGLAAGEKFRTTGPCPRRCRLGWLELSDPSGRVKKDQDWQIMQKGNTVFYRQSKEFLAEILTEAEKTGVSRMIFQPEPI | not soluble
2 | MTSIHVQVPATTANIGAGFDCLGAALSLHNQFQFRLAGESEPFFSLELVGADVETQKLEATADNLLYRAFAKVFATLGQPVPHVNIAIDLKVPLSRGLGSSATAIVGGLVGANALAGSPLSQREIMNLAIEMEGHPDNVVPALLGGCQLSVKHQQDWVI | not soluble
3 | MQEIGILENLQKSLALKEGMLSYEMLGKSLSYNPYLPRVIPQTKDCVFVTPDEVLEKLLKENTHTDCVIVNFKGLYEIGAPSVFNLEVLGLLRRHASSLIVHQDLFISHYQLLESLVQGSDGVVLDEELLKEDLKGMVEFSWRLGLSVFVETHKQDYTHLKDLGVLGVLEKVPHSQNQKRIVFLD | not soluble
4 | MASAVQAQHNVSDVSRMNVLFLMADDMRPELGCYGVEAVKTPNMDRLASSGVLFQNAYCNVPVSGASRASLLTGVYPHYPDRFVNFSAYASKDCPEAIPLSGWFTKNGYHTVSDGKVFHHMSDHAASWSEPPYRNHPDGYDVYWAEYNKWELWMNSESGKTINPKTMRGPFCESADVPDTAYDDGKLAERAIRDLRRMKEMNKPFFLACGFWKPHLPFNAPKKYWDLYKREEIPLASNRFRPEGLPEQVRNSSEIYAYARVTDTGDADFQREVKHGYYACLSYVDAQIGKVLDALDELGLAENTIVVLLGDHGWNLGEHDFVGKHNLMDRSTHVPLIIRVPGMKKGKTRSMVEFVDLYPTLCELCQIPQPAEQLDGQSFAKVFSNLKAKTKDEVYIQWEGGDNAVDQRFSYAEWMKGDVKKASMLFDHRIDKEENKNRVNEKKYKSKVESLSSFIKVKKSSLKKLEHHHHHH | not soluble
5 | MGSDKIHHHHHHMTQLFLHSDTPNEKELISIYEKAVSEAVELYIFSAYLTHWDVKNKLNSKLQEFKFIFGQDFGLSKKEAIRKVLKWLPSHLKFTLMVAQGIQGFHPKAVFWKNDKNEYYALIGSSNLTHAAFNSNYEANILTKISEQDFIKVKSWADEIAMKSIPVSEDWLEEYQEAEINYKKSTVRQSVMDKLFMEMPNYNQELIAARRKQMRNHQTVCNQLKNLIKQCAAGKIDNNDFYGEFNKLWSWKSENKGEGVGNRFQDKTWKRTGKSSDFRKLCIAIQSVFDAPLTERDNVVAKQIDWLKECGVSTRGSVFSEMLCQEYPDRYPVLNAPIKKFLEENKFKSAKGASEGSKYIDLSMKLRALLAMQSEIKDLAELDVLVQAEYRNRTDIDWE | not soluble
6 | MGSDKIHHHHHHMQKLVEQVWDYTKHAKFYSYRPNYAPKTIDMLISLVGKKDIKVADIGAGTGNLSIMLLERGCKVVSVEPNDAMREIGIERTKDQKIDWVRATGLNSTLQNSEFDWVTFGSSFNVMDRNEALEEAHRLLKSEGYFSCMWNHRDLNDPVQKIAEDTIVEFVPNYTRGTRREDQRPIIESRKDLFDNIVYIEEDFYFHQSIENYINAWKSVKNPYWDLETDEGNELFNKISNKISQRLPKEFSIKYTTRCWSAKKI | not soluble
7 | MSAALVAQQVATLREQGFVVVRNFASPPVRQALRELALQHLAQTVDPVEYEADLKYPGAPSSRLAAGGQTVRRLLDAYGRDQRFRDWATQAAIGAFLRAYFQDTPVLSTVHHNCIMTKHPAFGSLTGWHQDIRYWSFSDDDLVSCWLALGDERADNGGLYFVPGSHTASFMPEQYDARKFFRDDLPQNQEWIGRAVCPELQAGDVVFFHCRTLHAARQNATDTVKLSLVHTYHPASCHPLPGTRSAGSPGVPLPLEHHHHHH | soluble
8 | MGSDKIHHHHHHMSVLQELTKKKYSSLKTMFDDKYCPTFVYSILDQTIPGAVYADDQTFPKSFFIGTESGIYFIAGDQGNRDFHDFIAGYYEEQVKSSKRFTLFSSSDTWDSVLKPILKDDLNQMRRAAFSYQPKSFKKTLQLPKGLVLKRIDEDIISHSTAFNSAYYEEYWNSVSQFASKGFGFAVLHGNHVVSECTSIFLGHNRAEMDIYTLEEYRGLGLAYCVANRFIAFCMENGIVPSWDCDICNNSSIALAAKLGFKTVTEYTIYYSG | not soluble
9 | MGHHHHHHSHMEDSHKSTTSETAPQPGSAVQGAHISHIAQQVSSLSESEESQDSSDSIGSSQKAHGILARRPSYRKILKDLSSEDTRGRKGDGENSGVSAAVTSMSVPTPIYQTSSGQYIAIAPNGALQLASPGTDGVQGLQTLTMTNSGSTQQGTTILQYAQTSDGQQILVPSNQVVVQTASGDMQTYQIRTTPSATSLPQTVVMTSPVTLTSQTTKTDDPQLKREIRLMKNREAARECRRKKKEYVKCLENRVAVLENQNKTLIEELKTLKDLYSNKSV | soluble
10 | GSSCPGKSSWPHLVGVGGSVAKAIIERQNPNVKAVILEEGTPVTKDFRCNRVRIWVNKRGLVVSPPRIG | soluble
11 | MLSGTLFHKDVSIYSLFEELADKLNQKIEKRERLVKASRDVTYQSKKAIYLLHRAADEDLFSICSSAKEQLENIRQLICKLLLPELSAEEYFRFHSVFTIALQEYTEARLFLSYLSEGRALTLDEINAEISQQWQSLLENSEEARIY | soluble
12 | MAHHHHHHMNRSSSTSVNKDNVLQLTYYEIFSLDEVAESIDLQALHRAYRRFALLFHPDKDASPEAREAFLRVKLAAETLSDPIKRQEYNEQLRREAHEQREVKEQQRECGVGEEAIMAEMILRQKEAESLAKSAAANKEAAEREAAAKKMINELTNALTTPFKQMETALVSEWDIDEGLLDMKVNEIRLLLQKLHNLSCHREGRKGGGGAMGFSSGSEALPTAVKRTREESGVNITA | not soluble
13 | MSLASRQAIGFIAPSLAGEFMTGVMEGILQSLRKHQYDLIAVQGAPQHLINNQLAKQHIKAWIVIIDPTGLNELATNMPAVVISAPNAGERFPLVMPDNNQSARAMVEHLIEHGHSKIAFVGNFNNSDMRDRYTVYCDVLNEHSITPNPAWVVDVGDYTEGRTEHAFYPLIANGLNFSAVVAANDQQAVGVMMALETKGYRVPHDMAVVGFDDATIAQHANPPLTTVRQQPQLLGSIAADTVIELIAGKPVSNAPIYVPTIPIWRQSCGCKDVYTGIKEGHHHHHH | not soluble
14 | STEKEKMIAGELYRSADETLSRDRLRARQLIHRYNHSLAEEHTLRQQILADLFGQVTEAYIEPTFRCDYGYNIFLGNNFFANFDCVMLDVCPIRIGDNCMLAPGVHIYTATHPIDPVARNSGAELGKPVTIGNNVWIGGRAVINPGVTIGDNVVVASGAVVTKDVPDNVVVGGNPARIIKKL | soluble
15 | MSIIFAKLLLIILSYTHMKEKARNVYMVAGGVTKFAKASPEMDFRLRVKKAFDYAMNDAGLTLADIDGSVASYFSDHFQRQLMSGIMVQDYLGLVPKPSKRIEGGGATGGLAFQAGYEEIASGRMDTVAVYGFETMSHVNTWKGNEFIALASDTNFDYPIGGFYTGYYAMMAVRHMYEFGTTVEQLAKVSVKNHGNALHNPYAQSPMKLTVEDVRNAPMVSYPLTRLDVCAMSDGAAVAILASEDKAFEITDHPVLIKGIGTGTDSMRLADRPFGDVPLLPNEKPSDYKDLKYPGVHSFRAGRMAAKEAYEMAGITDPLNELDLIELHDAYTSSEIQTYEDLGLCKYGEGGQFIDEGKPELHGKIPVNPSGGLLAAGHPVGATGIMQAVFMFWQLQHTIKKHFHDDYLQVPNAKRGLIHSHAGTGTYVTVTIMEAAK | not soluble
16 | MGSDKIHHHHHHMIKWRDGKLGLPIKEAVELFPELKNFLDEKGRLDFSNREARILYNKAVAKVLFDLDIEYHPKGLVTPPISRYIFLKTFLRGGEKVLEIGTGHTALMSLIAEKVFKCDVTATELDNEFYSYAKLNIARNNSRIKLLKSSGGIIRGVVPRGERFDVIFSAPPYYEKHSGGVLTEREALGGGKFGEEFSIKLLNEALDYLNAGGKVALFLPHKRDLLNAIKMKGIRLGYEVRDILFKVGTRKRHSLILTV | not soluble
17 | MNNRSAVRILRLPAVIQKTGMARATIYDWLNPKSPRYDATFPKKRMLGVKSVGWIEAEIDEWLSQRCKLILEHHHHHH | not soluble
18 | MYAIAEDTLPARVLKELLLYRRRYPEHRQSASEADEIRRIEQVQLPRIAAFIEAGEPIEFVLPAFPAKSPNPGKVLDSRPDMAERLSLSFLNHLCQRIQLFYAPGAKITVCSDGRVFGDLVRIGDAHISAYQDALRLMIEEIGATHIGVFNLEDVRAFEAQRDNHEQLRQLLIGGYAEPLESIRETLLASEEGLLLYRAITRFLYEDGLTPDYQGSKTALQRDAKERAYGVIQRSWAWGALLADQFPRAIRLSIHPQPADSLKFGIHMMPTRDDWLTPWHGVAVNTEDRFVLMKRSEVLELGGELVQINGQPSHYRLPARAARRAAVALEHHHHHH | not soluble
19 | MKVGVFTVLYQQLPLEDMLDKVAAMGIEAVELGTGNYPGNAHCDPDALLDQPEKIKALKKAVADRGLVISALSCHGNPLHPDKTFAKQSHDTWRKTVRLAEQLEVPVINAFSGCPGDHPGAKYPNWVTCSWPPDYLEILKWQWEEVVIPYWREEAAFAKEHGITQIAFEMHPGFVVYNPETLLKLREHVGEAIGANFDPSHLLWQGIDPVEAIKLLGREKAIFHVHAKDTYLDEANIRKNGVLDTKHYSQILDRSWVFRTVGYGQSEKMWRDIVSALRAVGYDYVLSIEHEDMLASIDEGLSKAVALLKKVLFKEELPEMWWA | not soluble
20 | MGDYENVLMVKPKVFVYRIPPIGTSGHKAADWNLDSPAWTGRMRLVAIGKRLEMRLEDGETCDLYAKCPIDAHPGNAIEAVSDSSRYFVIRLQNDNGQQAFVGCGFQERGDAFDFNVTLQDHFRYIERSAELEKQDLSAGPSLDLAFKEGQTISINIGKKDKSAVSRPRPAPGASTGGLVPLLPPPPGAGSMIRNSRPSTTTTTASSSLSSAFAAPPPAPSSSTSTTATSGNLLDF | not soluble
21 | MRALSSLLLTLLLAGPAFAEPSAELQEPLAGWRYSGLLDRTEQDRVAYPTPPIDRGIQRNRTLIEGQLKAIGHLRQPHSLSVNGNPLNLYTDEQGRFARPYAFGAGSNSVEVRSSEGKPLKRVQFYEANLNKTPPRIRVVLGWDDPKAELDMHIITPDGQHAFFGHPGLTNGGGLDPDGVDGPGPEMFTMTAPLRGTYLIYVNYWGNFGSGGYNFDEGSNQNEVITSQINLILNENTVDEKRETFIVPMRAIGDLLLVKSFNYLEHHHHHH | soluble
22 | MSVEIESIEHELEESIASLRQAGVRITPQRQAILRYLISSHTHPTADEIYQALSPDFPNISVATIYNNLRVFKDIGIVKELTYGDSSSRFDFNTHNHYHIICEQCGKIVDFQYPQLNEIERLAQHMTDFDVTHHRMEIYGVCKECQDK | not soluble
23 | MRIFVYGSLRQKQGNSHWMTNAQLLGDYRIDNYQLYSLGHYPGAVPGNGAVYGEVYRIDNATLAELDALRTRGGEYARQLIQTPYGSAWMYVYQRPVDGLTLIESGDWLDRNQP | not soluble
